B1: GFP-RNF168 wildtype, Q8IYW5 R57D; E143del; E144del (protein)
chain: MALPKDAIPSLSECQCGICMEILVEPVTLPCNHTLCKPCFQSTVEKASLCCPFCRRDVSSWTRYHTRRNSLVNVELWTIIQKHYPRECKLRASGQESEEVADDYQPVRLLSKPGELRREYEEEISKVAAERRASEEEENKASYIQRLLAEEEEEEKRQAEKRRRAMEEQLKSDEELARKLSIDINNFCEGSISASPLNSRKSDPVTPKSEKKSKNKQRNTGDIQKYLTPKSQFGSASHSEAVQEVRKDSVSKDIDSSDRKSPTGQDTEIEDMPTLSPQISLGVGEQGADSSIESPMPWLCACGAEWYHEGNVKTRPSNHGKELCVLSHERPKTRVPYSKETAVMPCGRTESGCAPTSGVTQTNGNNTGETENEESCLLISKEISKRKNQESSFEAVKDPCFSAKRRKVSPESSPDQEETEINFTQKLIDLEHLLFERHKQEEQDRLLALQLQKEVDKEQMVPNRQKGSPDEYHLRATSSPPDKVLNGQRKNPKDGNFKRQTHTKHPTPERGSRDKNRQVSLKMQLKQSVNRRKMPNSTRDHCKVSKSAHSLQPSISQKSVFQMFQRCTK
B2: GFP-RNF168 wildtype, Q8IYW5 E143del; E144del (protein)
chain: MALPKDAIPSLSECQCGICMEILVEPVTLPCNHTLCKPCFQSTVEKASLCCPFCRRRVSSWTRYHTRRNSLVNVELWTIIQKHYPRECKLRASGQESEEVADDYQPVRLLSKPGELRREYEEEISKVAAERRASEEEENKASYIQRLLAEEEEEEKRQAEKRRRAMEEQLKSDEELARKLSIDINNFCEGSISASPLNSRKSDPVTPKSEKKSKNKQRNTGDIQKYLTPKSQFGSASHSEAVQEVRKDSVSKDIDSSDRKSPTGQDTEIEDMPTLSPQISLGVGEQGADSSIESPMPWLCACGAEWYHEGNVKTRPSNHGKELCVLSHERPKTRVPYSKETAVMPCGRTESGCAPTSGVTQTNGNNTGETENEESCLLISKEISKRKNQESSFEAVKDPCFSAKRRKVSPESSPDQEETEINFTQKLIDLEHLLFERHKQEEQDRLLALQLQKEVDKEQMVPNRQKGSPDEYHLRATSSPPDKVLNGQRKNPKDGNFKRQTHTKHPTPERGSRDKNRQVSLKMQLKQSVNRRKMPNSTRDHCKVSKSAHSLQPSISQKSVFQMFQRCTK

Molecular target: γH2AX, P16104
Assay: proximity ligation assay (PLA)
Conditions: chain shown with the change, U2OS cells transfected with GFP-RNF168 wildtype and mutants, antibodies against GFP and γH2AX, 75 (wildtype), parent: est. 43, read off a plot

Row | Binder | response (n = 53 cells (R57D/Δ143-144)) | response (n = 74 cells (Δ143-144))
1 | B1 | 11 | –
2 | B2 | – | 34

From publication PMC7235047
